Consider 1 protein from article PMC5000626, “Urinary Dopamine as a Potential Index of the Transport Activity of Multidrug and Toxin Extrusion in the Kidney” (International Journal of Molecular Sciences, 2016).

Substrate in the series: NCCc1ccc(O)c(O)c1
The experiment in a line: cells, lysate or membranes. As to conditions: other: [3H]dopamine uptake at 1 min, HEK293 cells expressing mMATE1, mean ± S.E., n=3; pH 7.4; 37.0 °C.

B1: mMATE1 (Mus musculus) (protein)
chain: MERTEESAPGPGGADAASERRGLRCLLLPGFLEELRALLVLAGPAFLAQLMMFLISFISSVFCGHLGKLELDAVTLAIAVINVTGISVGHGLSSACDTLISQTYGSQNLKHVGVILQRGTLILLLCCFPCWALFINTEQILLLFRQDPDVSRLTQTYVMIFIPALPAAFLYTLQVKYLLNQGIVLPQIMTGIAANLVNALANYVFLYHLHLGVMGSALANTISQFALAIFLFLYILWRRLHQATWGGWSWECLQDWASFLRLAIPSMLMLCIEWWAYEVGSFLSGILGMVELGAQSITYELAIIVYMIPSGFSVAANVRVGNALGAGNIDQAKKSSAISLIVTELFAVTFCVLLLGCKDLVGYIFTTDRDIVALVAQVIPIYAVSHLFEGLACTCGGILRGTGNQKVGAIVNAIGYYVIGLPIGIALMFAAKLGVIGLWSGIIICTTCQTTCFLAFIARLNWKRACQQAQVHANLKVNVALNSAVSHEPAHPVCPESHGEIMMTDLEKKDETQLDQPMNQQQALPIRPKDSNKLSGKQLALRRGLLLLGVVLVLVGGILVRVYIRIE
As for B1, the Km turned out to be 530 ± 80 µM.

What is called Km is the concentration of substrate that gives half-maximal velocity.
